From patent US20250262210A1 (TRUSTEES OF COLUMBIA UNIVERSITY IN THE CITY OF NEW YORK, published 2025)

Experiments:
Assay in all cases: IP/MS, LZTR1 wild type-FLAG, U87
[1] = biological target: T1, UBE4B (human, UniProt O95155 1-1302, limits assumed)
T1 sequence (looked up): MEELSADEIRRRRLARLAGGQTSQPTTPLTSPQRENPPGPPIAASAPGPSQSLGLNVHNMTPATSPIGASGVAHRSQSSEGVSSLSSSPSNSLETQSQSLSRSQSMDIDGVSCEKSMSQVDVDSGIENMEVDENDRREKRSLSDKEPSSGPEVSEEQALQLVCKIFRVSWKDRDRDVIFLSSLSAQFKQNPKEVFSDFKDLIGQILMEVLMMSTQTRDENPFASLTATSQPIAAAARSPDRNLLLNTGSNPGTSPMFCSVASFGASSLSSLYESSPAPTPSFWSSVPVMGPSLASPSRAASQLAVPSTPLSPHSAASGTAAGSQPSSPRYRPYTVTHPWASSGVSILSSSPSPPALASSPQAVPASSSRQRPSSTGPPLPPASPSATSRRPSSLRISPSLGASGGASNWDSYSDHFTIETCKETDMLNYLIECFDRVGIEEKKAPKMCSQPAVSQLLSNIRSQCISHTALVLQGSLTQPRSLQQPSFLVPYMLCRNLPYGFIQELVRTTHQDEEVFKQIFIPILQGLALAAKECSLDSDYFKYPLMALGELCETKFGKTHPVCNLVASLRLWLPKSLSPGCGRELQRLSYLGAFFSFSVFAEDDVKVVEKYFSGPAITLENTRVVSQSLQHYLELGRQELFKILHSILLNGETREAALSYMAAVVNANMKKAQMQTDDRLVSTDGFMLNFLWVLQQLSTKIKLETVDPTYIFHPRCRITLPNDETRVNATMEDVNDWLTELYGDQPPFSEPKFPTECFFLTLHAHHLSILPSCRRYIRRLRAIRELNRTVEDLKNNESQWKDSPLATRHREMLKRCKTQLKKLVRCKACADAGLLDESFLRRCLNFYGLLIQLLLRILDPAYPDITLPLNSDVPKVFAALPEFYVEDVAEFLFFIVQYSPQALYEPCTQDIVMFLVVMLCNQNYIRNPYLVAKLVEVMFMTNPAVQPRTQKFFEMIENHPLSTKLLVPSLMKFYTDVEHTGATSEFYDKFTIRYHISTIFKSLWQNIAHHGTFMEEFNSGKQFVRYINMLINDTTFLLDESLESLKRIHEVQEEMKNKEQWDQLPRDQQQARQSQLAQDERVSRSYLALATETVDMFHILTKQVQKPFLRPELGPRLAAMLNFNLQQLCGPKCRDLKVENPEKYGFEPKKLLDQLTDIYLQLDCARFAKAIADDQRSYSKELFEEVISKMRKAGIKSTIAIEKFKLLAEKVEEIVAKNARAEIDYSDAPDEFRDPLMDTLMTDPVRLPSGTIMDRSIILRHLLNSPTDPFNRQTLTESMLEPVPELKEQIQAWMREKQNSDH
Summary of the method: (§1)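 Gel slices were reduced with 5 mM DTT, alkylated with 11 mM IAA and digested overnight at 37° C. with trypsin. Peptides were analysed on an Orbitrap Fusion Tribrid by LC-MS/MS.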

[2] = biological target: T2, LONP2 (human, UniProt Q86WA8 2-852, limits assumed)
T2 sequence (looked up): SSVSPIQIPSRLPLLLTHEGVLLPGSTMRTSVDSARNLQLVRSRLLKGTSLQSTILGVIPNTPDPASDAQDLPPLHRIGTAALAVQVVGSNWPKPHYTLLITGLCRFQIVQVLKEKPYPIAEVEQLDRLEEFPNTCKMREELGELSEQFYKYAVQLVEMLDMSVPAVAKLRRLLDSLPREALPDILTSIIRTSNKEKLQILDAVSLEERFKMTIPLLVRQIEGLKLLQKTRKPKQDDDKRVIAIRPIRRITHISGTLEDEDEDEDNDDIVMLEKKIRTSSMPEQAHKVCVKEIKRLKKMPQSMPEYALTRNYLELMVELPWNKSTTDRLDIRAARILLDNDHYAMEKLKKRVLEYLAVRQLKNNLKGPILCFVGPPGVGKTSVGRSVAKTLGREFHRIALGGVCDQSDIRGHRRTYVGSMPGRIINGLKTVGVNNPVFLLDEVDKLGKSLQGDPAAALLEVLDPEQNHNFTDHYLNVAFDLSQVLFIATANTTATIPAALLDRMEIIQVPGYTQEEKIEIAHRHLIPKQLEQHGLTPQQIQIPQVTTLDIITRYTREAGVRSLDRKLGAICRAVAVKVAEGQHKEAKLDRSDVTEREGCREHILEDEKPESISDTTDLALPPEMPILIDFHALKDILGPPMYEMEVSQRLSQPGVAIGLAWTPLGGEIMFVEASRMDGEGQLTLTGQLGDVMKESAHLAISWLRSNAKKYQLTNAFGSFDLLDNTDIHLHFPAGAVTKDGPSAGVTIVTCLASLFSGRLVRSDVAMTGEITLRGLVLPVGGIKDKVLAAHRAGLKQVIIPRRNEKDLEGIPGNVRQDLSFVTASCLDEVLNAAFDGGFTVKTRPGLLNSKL
Summary of the method: as §1

[3] = biological target: KIF1B (human, UniProt O60333 2-1816, limits assumed)
Summary of the method: as §1

Measured: binding result

Chain of KIF1B (O60333 2-1816 limits assumed): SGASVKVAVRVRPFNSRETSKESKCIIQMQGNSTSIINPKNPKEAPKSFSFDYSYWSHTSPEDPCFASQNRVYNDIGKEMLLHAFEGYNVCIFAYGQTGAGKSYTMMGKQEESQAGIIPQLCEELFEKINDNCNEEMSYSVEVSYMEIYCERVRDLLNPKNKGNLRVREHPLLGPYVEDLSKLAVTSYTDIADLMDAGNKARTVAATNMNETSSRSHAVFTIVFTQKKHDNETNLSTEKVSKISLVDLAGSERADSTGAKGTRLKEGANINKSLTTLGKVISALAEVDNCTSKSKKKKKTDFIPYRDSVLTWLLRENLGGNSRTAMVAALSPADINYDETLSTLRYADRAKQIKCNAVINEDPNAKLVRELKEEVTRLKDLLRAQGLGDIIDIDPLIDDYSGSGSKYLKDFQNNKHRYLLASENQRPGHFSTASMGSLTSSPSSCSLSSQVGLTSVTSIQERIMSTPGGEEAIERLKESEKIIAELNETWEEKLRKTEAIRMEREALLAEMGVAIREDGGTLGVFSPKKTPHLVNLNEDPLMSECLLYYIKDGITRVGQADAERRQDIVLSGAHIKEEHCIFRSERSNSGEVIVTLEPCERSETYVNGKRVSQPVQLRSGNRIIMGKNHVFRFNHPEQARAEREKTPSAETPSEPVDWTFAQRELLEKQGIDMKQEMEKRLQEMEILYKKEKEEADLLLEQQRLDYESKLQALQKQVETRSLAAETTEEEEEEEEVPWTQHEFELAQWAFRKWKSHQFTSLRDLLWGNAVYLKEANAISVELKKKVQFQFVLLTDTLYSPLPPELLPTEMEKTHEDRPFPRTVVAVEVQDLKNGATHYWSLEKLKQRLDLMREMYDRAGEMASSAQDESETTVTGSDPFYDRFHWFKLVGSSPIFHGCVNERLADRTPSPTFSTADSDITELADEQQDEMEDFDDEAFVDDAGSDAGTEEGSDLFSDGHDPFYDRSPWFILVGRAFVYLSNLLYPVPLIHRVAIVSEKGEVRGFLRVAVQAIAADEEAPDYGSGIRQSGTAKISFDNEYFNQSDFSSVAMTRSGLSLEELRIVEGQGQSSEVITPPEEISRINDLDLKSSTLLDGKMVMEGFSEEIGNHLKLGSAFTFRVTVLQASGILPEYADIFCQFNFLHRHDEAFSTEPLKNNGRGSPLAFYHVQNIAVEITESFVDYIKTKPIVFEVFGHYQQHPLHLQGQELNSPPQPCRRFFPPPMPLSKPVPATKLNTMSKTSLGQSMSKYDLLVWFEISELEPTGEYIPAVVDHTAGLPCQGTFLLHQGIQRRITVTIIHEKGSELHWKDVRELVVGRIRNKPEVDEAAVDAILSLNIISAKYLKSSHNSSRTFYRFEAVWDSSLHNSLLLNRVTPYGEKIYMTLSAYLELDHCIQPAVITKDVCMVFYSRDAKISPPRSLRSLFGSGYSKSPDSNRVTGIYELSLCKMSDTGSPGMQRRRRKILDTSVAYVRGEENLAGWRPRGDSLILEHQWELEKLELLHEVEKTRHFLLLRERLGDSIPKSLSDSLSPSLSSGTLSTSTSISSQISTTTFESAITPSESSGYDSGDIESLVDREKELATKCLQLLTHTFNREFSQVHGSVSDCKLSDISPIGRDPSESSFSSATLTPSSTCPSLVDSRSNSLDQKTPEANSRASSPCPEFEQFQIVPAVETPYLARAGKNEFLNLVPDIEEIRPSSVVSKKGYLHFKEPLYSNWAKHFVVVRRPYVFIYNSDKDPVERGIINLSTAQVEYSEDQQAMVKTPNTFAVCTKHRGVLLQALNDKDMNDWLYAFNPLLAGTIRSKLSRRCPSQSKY

B1: LZTR1-FLAG (other, human, UniProt Q8N653 1-840, looked up)
chain: MAGPGSTGGQIGAAALAGGARSKVAPSVDFDHSCSDSVEYLTLNFGPFETVHRWRRLPPCDEFVGARRSKHTVVAYKDAIYVFGGDNGKTMLNDLLRFDVKDCSWCRAFTTGTPPAPRYHHSAVVYGSSMFVFGGYTGDIYSNSNLKNKNDLFEYKFATGQWTEWKIEGRLPVARSAHGATVYSDKLWIFAGYDGNARLNDMWTIGLQDRELTCWEEVAQSGEIPPSCCNFPVAVCRDKMFVFSGQSGAKITNNLFQFEFKDKTWTRIPTEHLLRGSPPPPQRRYGHTMVAFDRHLYVFGGAADNTLPNELHCYDVDFQTWEVVQPSSDSEVGGAEVPERACASEEVPTLTYEERVGFKKSRDVFGLDFGTTSAKQPTQPASELPSGRLFHAAAVISDAMYIFGGTVDNNIRSGEMYRFQFSCYPKCTLHEDYGRLWESRQFCDVEFVLGEKEECVQGHVAIVTARSRWLRRKITQARERLAQKLEQEAAPVPREAPGVAAGGARPPLLHVAIREAEARPFEVLMQFLYTDKIKYPRKGHVEDVLLIMDVYKLALSFQLCRLEQLCRQYIEASVDLQNVLVVCESAARLQLSQLKEHCLNFVVKESHFNQVIMMKEFERLSSPLIVEIVRRKQQPPPRTPLDQPVDIGTSLIQDMKAYLEGAGAEFCDITLLLDGHPRPAHKAILAARSSYFEAMFRSFMPEDGQVNISIGEMVPSRQAFESMLRYIYYGEVNMPPEDSLYLFAAPYYYGFYNNRLQAYCKQNLEMNVTVQNVLQILEAADKTQALDMKRHCLHIIVHQFTKVSKLPTLRSLSQQLLLDIIDSLASHISDKQCAELGADI
notes: Expressed in HEK 293T, HeLa or U87 cells; used as cell lysate; also called LZTR1 wild type-FLAG; LZTR1 WT; not shown: FLAG tag at the C-terminus
binds: all assays above
